Assay results: patent US7189837 (NEUROTECH S A, dated 2007)
Each block holds one molecule with its values, some of them ahead of it.

Tests used:
[1] = target: hTR-FcΔH (human transferrin receptor residues 1-97 fused to CH1 and hinge deleted human IgG1 heavy chain constant region), expressed on BHK cells (human); assay: cell ELISA on BHK-FcΔH cells, goat anti-human IgG Fc alkaline phosphatase conjugate 1:1000, PNPP substrate
[2] = target: T1, human FcγRI on interferon-γ-treated U937 cells (human, UniProt P12314 16-374); assay: inferred from Fc receptor-mediated superoxide production in U937 cells
T1 construct: whole, on cells; also called FcγR1; CD64
T1 sequence (P12314 16-374): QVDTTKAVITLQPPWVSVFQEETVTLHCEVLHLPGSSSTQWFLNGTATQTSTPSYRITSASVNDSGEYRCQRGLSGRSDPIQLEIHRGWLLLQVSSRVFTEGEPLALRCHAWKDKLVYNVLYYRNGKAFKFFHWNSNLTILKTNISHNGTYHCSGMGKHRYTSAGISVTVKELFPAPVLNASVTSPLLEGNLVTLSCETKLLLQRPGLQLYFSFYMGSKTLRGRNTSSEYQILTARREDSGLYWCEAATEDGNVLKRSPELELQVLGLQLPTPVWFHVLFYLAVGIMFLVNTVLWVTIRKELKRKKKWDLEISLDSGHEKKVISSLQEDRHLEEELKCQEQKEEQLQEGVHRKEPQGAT
Protocol: To assess whether cell surface expression of reverse Fc was biologically active in terms of Fc receptor binding and complement fixation, Fc receptor-mediated superoxide production in the human monocyte-like cell line was examined. Superoxide was measured spectrophotometrically as a function of the cell's ability to reduce cytochrome c. Superoxide production was determined using the 96-well microtiter plate assay of Tao, et al., *J Leukoc Biol*, 58: 203–208 (1995). 25,000 cells/well of either BHK-WT (control), opsonized BHK cells, or BHK-reverse Fc clones were added to the assay plate containing either human monocyte-like U937 cells (ATCC, Rockville, Md.) pre treated with recombinant human interferon-γ (R&D Systems, Minneapolis, Minn.) or lavaged mouse peritoneal macrophages. The O_2-release was measured as the superoxide dismutase (SOD) inhibitable reduction of cytochrome c at 550 nm by using a ThermoMax Plate reader (Molecular Devices, Menlo Park, Calif.). The rate of O_2-production was monitored from time 0 to […] after stimulation.

Cell Surface Fc (OD405) [1]: 2.8 OD405
Molecule: Goat anti-human IgG Fc alkaline phosphatase conjugate (Sigma) (antibody)

binding result [2]: binds
B1: hTR-FcΔH (human transferrin receptor residues 1-97 fused to CH1 and hinge deleted human IgG1 heavy chain constant region), expressed on BHK cells (Fc fusion)
chain: MMDQARSAFSNLFGGEPLSYTRFSLARQVDGDNSHVEMKLAVDEEENADNNTKANVTKPKRCSGSICYGTIAVIVFFLIGFMIGYLGYCKGVEPKTEGSAPELLGGPSVFLFPPKPKDTLMISRTPEVTCVVVDVSHEDPEVKFNWYVDGVEVHNAKTKPREEQYNSTYRVVSVLTVLHQDWLNGKEYKCKVSNKALPAPIEKTISKAKGQPREPQVYTLPPSRDELTKNQVSLTCLVKGFYPSDIAVEWESNGQPENNYKTTPPVLDSDGSFFLYSKLTVDKSRWQQGNVFSCSVMHEALHNHYTQKSLSLSPGK
notes: also called BHK-FcΔH; BHK-FcΔH(3)
